Experimental data reported in patent US20030143192A1 (Human Genome Sciences, published 2003).

T1: human CCR3 (human, UniProt P51677 1-355)
T1 construct: whole, on cells; also called chemokine receptor-3; hCCR3
T1 sequence (looked up): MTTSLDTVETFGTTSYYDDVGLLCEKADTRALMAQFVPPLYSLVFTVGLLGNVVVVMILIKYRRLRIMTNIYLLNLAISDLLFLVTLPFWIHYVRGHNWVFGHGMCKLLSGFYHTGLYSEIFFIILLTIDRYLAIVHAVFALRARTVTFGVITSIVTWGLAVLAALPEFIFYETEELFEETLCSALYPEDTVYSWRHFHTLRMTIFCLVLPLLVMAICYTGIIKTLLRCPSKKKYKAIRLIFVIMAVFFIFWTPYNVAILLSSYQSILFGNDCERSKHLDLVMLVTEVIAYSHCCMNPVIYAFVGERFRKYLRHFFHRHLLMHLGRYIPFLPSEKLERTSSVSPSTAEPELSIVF

T2: human D6 chemokine receptor (human, UniProt O00590 1-384)
T2 construct: whole, on cells
T2 sequence (looked up): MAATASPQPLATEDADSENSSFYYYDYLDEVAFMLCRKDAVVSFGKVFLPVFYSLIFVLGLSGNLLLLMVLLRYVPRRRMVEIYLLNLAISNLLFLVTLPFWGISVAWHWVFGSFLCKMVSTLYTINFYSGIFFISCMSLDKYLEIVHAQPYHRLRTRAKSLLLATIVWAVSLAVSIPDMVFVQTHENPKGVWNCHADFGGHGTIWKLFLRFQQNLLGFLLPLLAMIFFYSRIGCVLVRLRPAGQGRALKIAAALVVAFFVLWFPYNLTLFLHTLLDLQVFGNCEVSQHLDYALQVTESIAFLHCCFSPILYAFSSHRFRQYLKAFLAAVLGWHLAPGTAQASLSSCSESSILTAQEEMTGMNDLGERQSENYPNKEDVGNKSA

B1: MCP4 (ligand)
chain: not shown
notes: also called monocyte chemotactic protein-4; Ckβ-10
B2: eotaxin (ligand)
chain: not shown
notes: also called human eotaxin
B3: Met-Ckβ7* (ligand)
chain: MQVGTNKELCCLVYTSWQIPQKFIVDYSETSPQCPKPGVILLTKRGRQICADPNKKWVQKYISDLKLMPEA
notes: E. coli-produced modified form of Ckβ7/MIP4: signal peptide removed, N-terminal Ala of the mature protein replaced by Met, C-terminus LKLMPEA; also called Met-22-87-Met-Pro-Glu-Ala; hg00701-e2

Tests used:
human CCR3 [1] = molecular target: T1, human CCR3; experiment: displacement of 0.1 nM 125I-eotaxin from purified human eosinophils (CCR3)
Method: (§1) After washing with binding buffer containing 0.5M NaCl, the percentage of radio-iodinated ligand remaining bound was calculated compared to assays in which no unlabeled chemokine was added. Each point is the mean of three identical incubations and standard error is included. (C) 2×10⁵ purified eosinophils were incubated for 2 hrs at room temperature in azide-containing binding buffer with 45 nM ¹²⁵I-Met-Ckβ7* plus 500 nM of the various unlabeled chemokines indicated at the bottom of the graph. Cells were washed twice with PBS and remaining ¹²⁵I-Met-Ckβ7* bound was counted. Results are the mean of three identical incubations represented as a percentage of the binding seen in the absence of competitor, and standard error is included.
(§2) Eosinophil ¹²⁵I-Chemokine Binding Assay. 2×10⁵ purified eosinophils were placed in each well of a 96 well plate in binding buffer (1 mM CaCl₂, 5 mM MgCl₂, 0.5% BSA, 0.05% sodium azide, 50 mM Hepes (pH 7.5)). Iodinated chemokine (final concentration of 0.1 nM ¹²⁵I-eotaxin or ¹²⁵I-MCP4, specific activity 2200 Ci/mmol (NEN, Boston, Mass.)) was added in the absence or presence of unlabeled chemokines to a final volume of 100 μl. […] The plates were dried and counted after addition of 50 μl of liquid scintillant in each well. […] Cells were then washed twice with ice cold PBS and counted in a Beckman Gamma 5500B counter. […]

human CCR3 [2] = molecular target: T1, human CCR3; experiment: homologous displacement of 0.1 nM 125I-MCP4 from purified human eosinophils (CCR3)
Method: as §1, §2

human CCR3 [3] = molecular target: T1, human CCR3; experiment: homologous displacement of 0.1 nM 125I-eotaxin from purified human eosinophils (CCR3)
Method: as §1, §2

human CCR3 [4] = molecular target: T1, human CCR3; experiment: displacement of 0.1 nM 125I-MCP4 from purified human eosinophils (CCR3)
Method: as §1, §2

human CCR3 [5] = molecular target: T1, human CCR3; experiment: displacement of 0.1 nM 125I-eotaxin from 2x10^5 purified human eosinophils (CCR3), 60 min at room temperature
Method: as §1, §2

[6] = molecular target: T2, human D6 chemokine receptor; experiment: displacement of 125I-MIP1α in binding assays on CHO cells expressing D6 (not shown)

Binder	IC50 (human CCR3 [1]) [nM]	IC50 (human CCR3 [2]) [nM]	IC50 (human CCR3 [3]) [nM]	IC50 (human CCR3 [4]) [nM]	IC50 (human CCR3 [5]) [nM]	binding result [6]
B1	~60	~25				
B2			~10	~5		
B3				~5	~6	no binding (tested: 700 nM)
